Laboratory results from patent US20060073152A1 (Genentech, published 2006).
No end group written: not given here.

B1: HB-H16 (peptide)
peptide: RMPASLPCYWETICYESSEQ
modifications: not fully specified (bridges); cysteine pairing not given here; also: phage-displayed
notes: on phage
B2: HB-H18 (peptide)
peptide: RTAESLVCYWPGICFAQSER
modifications: not fully specified (bridges); cysteine pairing not given here; also: phage-displayed
notes: on phage
B3: HB-H13 (peptide)
peptide: ELCYFPGICWT
modifications: not fully specified (bridges); cysteine pairing not given here; also: phage-displayed
notes: on phage
B4: HC-H11 (peptide)
peptide: EVCYFPGICWF
modifications: not fully specified (bridges); cysteine pairing not given here; also: phage-displayed
notes: on phage
B5: HC-H16 (peptide)
peptide: EVCYFPGICWE
modifications: not fully specified (bridges); cysteine pairing not given here; also: phage-displayed
notes: on phage
B6: HC-H2 (peptide)
peptide: KLCYFPGICWS
modifications: not fully specified (bridges); cysteine pairing not given here; also: phage-displayed
notes: on phage
B7: HBC-H4 (peptide)
peptide: GGEICYFPGICRVLP
modifications: not fully specified (bridges); cysteine pairing not given here; also: phage-displayed
notes: on phage
B8: HBC-H3 (peptide)
peptide: GTEVCYFPGICWGGG
modifications: not fully specified (bridges); cysteine pairing not given here; also: phage-displayed
notes: on phage
B9: HBC-H17 (peptide)
peptide: HAEICYFPGICWTER
modifications: not fully specified (bridges); cysteine pairing not given here; also: phage-displayed
notes: on phage
B10: HBC-H18 (peptide)
peptide: RDTVCYFPGICWMAS
modifications: not fully specified (bridges); cysteine pairing not given here; also: phage-displayed
notes: on phage

target: T1, human serum albumin (human, UniProt P02768 25-609); assay: phage binding
T1 construct: also called Human SA; HuSA

Question: Does EVRSFCTDWPAHYSCTSLQG (on phage) [HA-H74] bind?
Answer: binds

Question: Does GVRTFCQDWPAHNSCKLLRG (on phage) [HA-H73] bind?
Answer: binds

Question: Does QTRSFCADWPRHESCKPLRG (on phage) [HA-H76] bind?
Answer: binds

Question: Does RAAESSVCYWPGICFDRTEQ (on phage) [HB-H2] bind?
Answer: binds

Question: Does MEPSRSVCYAEGICFDRGEQ (on phage) [HB-H8] bind?
Answer: binds

Question: Does REPASLVCYFEDICFVRAEA (on phage) [HB-H3] bind?
Answer: binds

Question: Does LVPERIVCYFESICYERSEL (on phage) [HB-H4] bind?
Answer: binds

Question: Does B1 bind?
Answer: binds

Question: Does B2 bind?
Answer: binds

Question: Does ELCYFPGICWM (on phage) [HC-H20] bind?
Answer: binds

Question: Does EICYFPGICWI (on phage) [HB-H12] bind?
Answer: binds

Question: Does B3 bind?
Answer: binds

Question: Does DLCYFPGICWM (on phage) [HC-H3] bind?
Answer: binds

Question: Does EMCYFPGICWS (on phage) [HC-H7] bind?
Answer: binds

Question: Does DVCYFPGICWM (on phage) [HC-H8] bind?
Answer: binds

Question: Does EMCYFPGICWT (on phage) [HC-H9] bind?
Answer: binds

Question: Does B4 bind?
Answer: binds

Question: Does ALCYFPGICWM (on phage) [HC-H14] bind?
Answer: binds

Question: Does ELCYFPGICWP (on phage) [HC-H15] bind?
Answer: binds

Question: Does B5 bind?
Answer: binds

Question: Does EICYFPGICWM (on phage) [HC-H17] bind?
Answer: binds

Question: Does EVCYFPGICWM (on phage) [HC-H19] bind?
Answer: binds

Question: Does DICYIPGICWM (on phage) [HC-H6] bind?
Answer: binds

Question: Does B6 bind?
Answer: binds

Question: Does GMCYFPGICWA (on phage) [HC-H4] bind?
Answer: binds

Question: Does KTCYFPGICWM (on phage) [HC-H10] bind?
Answer: binds

Question: Does DMCYFPGICWL (on phage) [HC-H13] bind?
Answer: binds

Question: Does DMCYFPGICFN (on phage) [HC-H18] bind?
Answer: binds

Question: Does ETCYFPGICWL (on phage) [HC-H12] bind?
Answer: binds

Question: Does LAEMCYFPGICWMSA (on phage) [HBC-H7] bind?
Answer: binds

Question: Does B7 bind?
Answer: binds

Question: Does EHDMCYFPGICWIAD (on phage) [HBC-H6] bind?
Answer: binds

Question: Does VQEVCYFPGICWMQE (on phage) [HBC-H10] bind?
Answer: binds

Question: Does SREVCYYPGICWNGA (on phage) [HBC-H2] bind?
Answer: binds

Question: Does DSEVCYFPGICWSGT (on phage) [HBC-H1] bind?
Answer: binds

Question: Does B8 bind?
Answer: binds

Question: Does SYAPCYFPGICWMGN (on phage) [HBC-H8] bind?
Answer: binds

Question: Does B9 bind?
Answer: binds

Question: Does NDEICYFPGVCWKSG (on phage) [HBC-H11] bind?
Answer: binds

Question: Does B10 bind?
Answer: binds

Question: Does VRDMCYFPGICWKSE (on phage) [HBC-H19] bind?
Answer: binds

Question: Does ASEICYFPGICWMVE (on phage) [HBC-H12] bind?
Answer: binds
